Reference: US20070078102A1, “NF-kB oligonucleotide decoy molecules” (published 2007)

B1: decoy 141 A-Z-2 (dsDNA)
DNA 1: GTTGAGGGACTTTCCAGG
DNA 2: CCTGGAAAGTCCCTCAAC
B2: decoy 197 C-W (dsDNA)
DNA 1: CTCGGGGACTTTCCCTGT
DNA 2: ACAGGGAAAGTCCCCGAG
B3: 153/154 PO/H5 (dsDNA)
DNA 1: AGTTGAGGACTTTCCAGGC
DNA 2: GCCTGGAAAGTCCTCAACT
modifications: strand 153 PO; strand 154 PS at the 5 3'-most linkages
B4: 153/154 H4/H4 (dsDNA)
DNA 1: AGTTGAGGACTTTCCAGGC
DNA 2: GCCTGGAAAGTCCTCAACT
modifications: PS at the 4 3'-most linkages of each strand
B5: 153/154 PS/PO (dsDNA)
DNA 1: AGTTGAGGACTTTCCAGGC
DNA 2: GCCTGGAAAGTCCTCAACT
modifications: strand 153 full PS; strand 154 PO
B6: 153/154 PO/PS (dsDNA)
DNA 1: AGTTGAGGACTTTCCAGGC
DNA 2: GCCTGGAAAGTCCTCAACT
modifications: strand 153 PO; strand 154 full PS
B7: 153/154 H11/H11 (dsDNA)
DNA 1: AGTTGAGGACTTTCCAGGC
DNA 2: GCCTGGAAAGTCCTCAACT
modifications: PS at the 11 3'-most linkages of each strand
B8: 153/154 PO/H11 (dsDNA)
DNA 1: AGTTGAGGACTTTCCAGGC
DNA 2: GCCTGGAAAGTCCTCAACT
modifications: strand 153 PO; strand 154 PS at the 11 3'-most linkages
B9: 153/154 PO (dsDNA)
DNA 1: AGTTGAGGACTTTCCAGGC
DNA 2: GCCTGGAAAGTCCTCAACT
modifications: full phosphodiester, both strands
B10: decoy 151 D-Z (dsDNA)
DNA 1: AGTTGAGGGATTTCCAGGC
DNA 2: GCCTGGAAATCCCTCAACT
B11: decoy 235 L-V (dsDNA)
DNA 1: TCGGACTTTCCCTC
DNA 2: GAGGGAAAGTCCGA
B12: decoy 129 D-V (dsDNA)
DNA 1: TCGGGATTTCCTC
DNA 2: GAGGAAATCCCGA
B13: decoy 309 M-T (dsDNA)
DNA 1: CCTTGAAGGGATTTCCCTCC
DNA 2: GGAGGGAAATCCCTTCAAGG
B14: decoy 279 E-Z A->C EVEN (dsDNA)
DNA 1: TTGCGGACTTTCCAGGC
DNA 2: GCCTGGAAAGTCCGCAA
B15: decoy 265 I-Z (dsDNA)
DNA 1: AGTTGAGGATTTCCCAGGC
DNA 2: GCCTGGGAAATCCTCAACT
B16: decoy 173 E-Z-4 (dsDNA)
DNA 1: TTGAGGACTTTCCAG
DNA 2: CTGGAAAGTCCTCAA
B17: decoy 177 E-W (dsDNA)
DNA 1: CTCGGACTTTCCTGT
DNA 2: ACAGGAAAGTCCGAG
B18: decoy 153/154 E-Z (dsDNA)
DNA 1: AGTTGAGGACTTTCCAGGC
DNA 2: GCCTGGAAAGTCCTCAACT
B19: decoy 123 A-W (dsDNA)
DNA 1: CTCGGGACTTTCCTGT
DNA 2: ACAGGAAAGTCCCGAG
B20: decoy 117 E-U (dsDNA)
DNA 1: ATGGACTTTCCGT
DNA 2: ACGGAAAGTCCAT
B21: decoy 263 H-Z (dsDNA)
DNA 1: AGTTGAGGATTTCCAGGC
DNA 2: GCCTGGAAATCCTCAACT
B22: decoy 227 H-V (dsDNA)
DNA 1: TCGGATTTCCTC
DNA 2: GAGGAAATCCGA
B23: decoy 155 E-V (dsDNA)
DNA 1: TCGGACTTTCCTC
DNA 2: GAGGAAAGTCCGA
B24: decoy 281 E-Z EVEN (dsDNA)
DNA 1: TTGAGGACTTTCCAGGC
DNA 2: GCCTGGAAAGTCCTCAA
B25: decoy 259 E-Z' (dsDNA)
DNA 1: TTGAGGACTTTCCAGGCTC
DNA 2: GAGCCTGGAAAGTCCTCAA
B26: decoy 295 (dsDNA)
DNA 1: TGAGGACTTTCCAGGCTC
DNA 2: GAGCCTGGAAAGTCCTCA
B27: decoy 289 (dsDNA)
DNA 1: TGAGGACTTTCCAGGC
DNA 2: GCCTGGAAAGTCCTCA
B28: decoy 145 A-Z (dsDNA)
DNA 1: AGTTGAGGGACTTTCCAGGC
DNA 2: GCCTGGAAAGTCCCTCAACT
B29: decoy 195 C-V (dsDNA)
DNA 1: TCGGGGACTTTCCCTC
DNA 2: GAGGGAAAGTCCCCGA
B30: 153/154 PS/PS (dsDNA)
DNA 1: AGTTGAGGACTTTCCAGGC
DNA 2: GCCTGGAAAGTCCTCAACT
modifications: full PS, both strands
B31: 153/154 H11/PO (dsDNA)
DNA 1: AGTTGAGGACTTTCCAGGC
DNA 2: GCCTGGAAAGTCCTCAACT
modifications: strand 153 PS at the 11 3'-most linkages; strand 154 PO
B32: 153/154 H10/H8 (dsDNA)
DNA 1: AGTTGAGGACTTTCCAGGC
DNA 2: GCCTGGAAAGTCCTCAACT
modifications: PS at the 10 (153) and 8 (154) 3'-most linkages
B33: 153/154 H9/H9 (dsDNA)
DNA 1: AGTTGAGGACTTTCCAGGC
DNA 2: GCCTGGAAAGTCCTCAACT
modifications: PS at the 9 3'-most linkages of each strand
B34: 153/154 H10/H10 (dsDNA)
DNA 1: AGTTGAGGACTTTCCAGGC
DNA 2: GCCTGGAAAGTCCTCAACT
modifications: PS at the 10 3'-most linkages of each strand
B35: 153/154 H8/H8 (dsDNA)
DNA 1: AGTTGAGGACTTTCCAGGC
DNA 2: GCCTGGAAAGTCCTCAACT
modifications: PS at the 8 3'-most linkages of each strand
B36: 153/154 H8/H10 (dsDNA)
DNA 1: AGTTGAGGACTTTCCAGGC
DNA 2: GCCTGGAAAGTCCTCAACT
modifications: PS at the 8 (153) and 10 (154) 3'-most linkages
B37: 153/154 H7/H7 (dsDNA)
DNA 1: AGTTGAGGACTTTCCAGGC
DNA 2: GCCTGGAAAGTCCTCAACT
modifications: PS at the 7 3'-most linkages of each strand
B38: 153/154 H6/H6 (dsDNA)
DNA 1: AGTTGAGGACTTTCCAGGC
DNA 2: GCCTGGAAAGTCCTCAACT
modifications: PS at the 6 3'-most linkages of each strand
B39: 153/154 H3/H3 (dsDNA)
DNA 1: AGTTGAGGACTTTCCAGGC
DNA 2: GCCTGGAAAGTCCTCAACT
modifications: PS at the 3 3'-most linkages of each strand
B40: 153/154 H5/H5 (dsDNA)
DNA 1: AGTTGAGGACTTTCCAGGC
DNA 2: GCCTGGAAAGTCCTCAACT
modifications: PS at the 5 3'-most linkages of each strand
B41: 153/154 H5/PO (dsDNA)
DNA 1: AGTTGAGGACTTTCCAGGC
DNA 2: GCCTGGAAAGTCCTCAACT
modifications: strand 153 PS at the 5 3'-most linkages; strand 154 PO

Key:
[1] = molecular target: NF-kB p50/p50 homodimer (NFKB1) (Homo sapiens, UniProt P19838 P19838:1-433); experiment: EMSA; competition vs 32P 113/114 probe; settings: protein: extract; tags: none; nuclear extract of LPS-stimulated THP-1 cells; chain copies: 2 (stated homodimer)
Source text: (§1) The EMSA assay was employed to characterize oligonucleotide decoys for the NF-κB transcription factor. […] Using the above modified oligonucleotides to compete for binding for the above-mentioned NF-κB family members, it was possible to compare the binding affinity of these oligonucleotides against the high affinity radiolabeled probe and each other. This assay has also enabled the design of a decoy which selectively binds particular members of the NF-κB family. By using increasing concentrations of various oligonucleotides, it was observed that, by deleting or changing targeted residues in the binding site, it was possible to specifically decrease the binding of the decoy molecule to p50/p50 homodimers, while retaining the affinity for p65/p50 and cRel/p50 heterodimers.
(§2) The NF-κB gel shift assays (EMSA) were performed as follows. A double-stranded oligonucleotide containing a consensus NF-κB binding site (5′ […] 3′) (SEQ ID NO: 78) was end-labeled with γ³²P-ATP using T4 Polynucleotide Kinase (Promega). Alternatively, a double-stranded ODN containing a consensus NF-κB binding site from the IL-6 promoter (5′ […] 3′) (SEQ ID NO: 94) was end-labeled with γ³²P-ATP using T4 Polynucleotide Kinase (Promega). One microgram of a nuclear extract prepared from LPS stimulated THP-1 cells (human monocyte cell line) was incubated with 35 fmol of radiolabeled probe in the presence or absence of competing unlabeled NF-κB double-stranded oligonucleotides (dsODN) or scrambled dsODN. The incubations were carried out at room temperature for 30 minutes in a 20 μl reaction volume composed of 10 mM Tris-HCl pH 8, 100 mM KCL, 5 mM MgCl2, 2 mM DTT, 10% Glycerol, 0.1% NP-40, 0.025% BSA and 1 μg Poly-dIdC. The reactions were loaded onto a 6% polyacrylamide gel, subjected to electrophoresis and dried. The dried gels were imaged and quantitated using a Typhoon 8600 PhosphorImager (Amersham) and ImageQuant software.

[2] = molecular target: NF-kB p65/p50 heterodimer (RelA/NFKB1) (Homo sapiens, UniProt Q04206;P19838 Q04206:1-551,P19838:1-433); experiment: EMSA; competition vs 32P 113/114 probe; settings: protein: extract; tags: none; nuclear extract of LPS-stimulated THP-1 cells
Source text: as §1, §2

Sequence of NF-kB p65/p50 heterodimer (RelA/NFKB1) (Q04206 whole entry, chain 1 of 2): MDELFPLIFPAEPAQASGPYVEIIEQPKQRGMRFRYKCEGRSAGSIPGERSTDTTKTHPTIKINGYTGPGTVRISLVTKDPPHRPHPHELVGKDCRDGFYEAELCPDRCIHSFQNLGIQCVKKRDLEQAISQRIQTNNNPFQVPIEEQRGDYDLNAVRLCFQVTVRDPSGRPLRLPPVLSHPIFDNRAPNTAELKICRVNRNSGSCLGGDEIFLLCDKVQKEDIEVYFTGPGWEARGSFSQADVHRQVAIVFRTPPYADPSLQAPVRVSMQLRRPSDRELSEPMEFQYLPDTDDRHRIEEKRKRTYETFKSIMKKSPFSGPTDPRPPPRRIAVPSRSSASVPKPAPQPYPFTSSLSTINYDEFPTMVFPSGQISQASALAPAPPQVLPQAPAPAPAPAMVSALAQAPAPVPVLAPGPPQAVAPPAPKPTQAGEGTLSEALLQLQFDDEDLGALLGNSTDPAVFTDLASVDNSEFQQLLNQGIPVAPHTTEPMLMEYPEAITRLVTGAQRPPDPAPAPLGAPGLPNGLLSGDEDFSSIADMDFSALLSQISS
Sequence of NF-kB p65/p50 heterodimer (RelA/NFKB1) (P19838 1-433, chain 2 of 2): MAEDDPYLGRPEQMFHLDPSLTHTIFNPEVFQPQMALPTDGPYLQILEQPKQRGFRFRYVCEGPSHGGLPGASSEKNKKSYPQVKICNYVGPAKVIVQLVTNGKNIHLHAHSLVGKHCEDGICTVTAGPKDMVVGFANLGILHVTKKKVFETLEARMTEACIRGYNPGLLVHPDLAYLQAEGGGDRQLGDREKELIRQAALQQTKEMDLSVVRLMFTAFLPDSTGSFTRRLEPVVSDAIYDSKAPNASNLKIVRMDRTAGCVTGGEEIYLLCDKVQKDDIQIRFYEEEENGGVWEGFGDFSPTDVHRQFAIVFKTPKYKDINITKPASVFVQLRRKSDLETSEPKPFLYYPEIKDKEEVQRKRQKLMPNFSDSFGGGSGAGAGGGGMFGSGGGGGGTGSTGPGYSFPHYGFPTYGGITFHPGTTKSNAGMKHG
Sequence of NF-kB p50/p50 homodimer (NFKB1) (P19838 1-433, one chain of several): as the sequence (P19838 1-433, chain 2 of 2) above

Row | Binder | IC50 [1] [fold molar excess] | IC50 [2] [fold molar excess]
1 | B1 | 10 | 7.5
2 | B2 | 17.5 | 26
3 | B3 |  | 65
4 | B4 |  | 85
5 | B5 | 5 | 5
6 | B6 | 5 | 5
7 | B7 | 27 | 24
8 | B8 | 40 | 7.5
9 | B9 | 92 | 58
10 | B10 | 69 | 36
11 | B11 | 62.5 | 37
12 | B12 | 37.5 | 37.5
13 | B13 | 50 | 45
14 | B14 | 52 | 48
15 | B15 | 84 | 54
16 | B16 |  | 55
17 | B17 |  | 57.5
18 | B18 | 96 | 62.4
19 | B19 | 10 | 8
20 | B20 |  | 72.5
21 | B21 | 82 | 73

Row | Binder | IC50 [1] [fold molar excess] | IC50 [2] [fold molar excess]
22 | B22 |  | 74
23 | B23 | 97 | 81
24 | B24 |  | 87
25 | B25 | 85 | 87
26 | B26 |  | 92
27 | B27 |  | 93
28 | B28 | 8 | 8
29 | B29 | 9 | 8.5
30 | B30 |  | 5
31 | B31 |  | 7.5
32 | B32 |  | 9
33 | B33 |  | 17
34 | B34 |  | 21
35 | B35 |  | 29
36 | B36 |  | 33
37 | B37 |  | 39
38 | B38 |  | 40
39 | B39 |  | 45
40 | B40 |  | 50
41 | B41 |  | 59
